Laboratory results as given in the Immune Epitope Database (IEDB).
Each block holds one sequence with its values, some of them ahead of it.

Tests used:
HLA-B*15:03 = assay: IEDB peptide-MHC binding, purified MHC/competitive/radioactivity; filed as Kd, often an IC50 or EC50 that approximates it; ≥ and ≤ were set here for values at or beyond the usual limits of such assays; conditions: source organism: Vaccinia virus WR
HLA-A*02:01 [1] = assay: as above
HLA-A*02:03 = assay: as above
HLA-A*02:06 = assay: as above
HLA-A*02:17 = assay: as above
HLA-A*02:01 [2] = assay: IEDB peptide-MHC binding, purified MHC/competitive/fluorescence; ≥ and ≤ were set here for values at or beyond the usual limits of such assays; conditions: source organism: Zaire ebolavirus
HLA-B*15:01 [3] = assay: as above; conditions: source organism: Zaire ebolavirus
HLA-C*05:01 = assay: IEDB peptide-MHC binding, purified MHC/direct/fluorescence; filed as Kd, often an IC50 or EC50 that approximates it; ≥ and ≤ were set here for values at or beyond the usual limits of such assays
HLA-B*15:42 = assay: IEDB peptide-MHC binding, purified MHC/competitive/fluorescence; filed as Kd, often an IC50 or EC50 that approximates it; ≥ and ≤ were set here for values at or beyond the usual limits of such assays; conditions: source organism: human gammaherpesvirus 4
HLA-B*45:06 = assay: as above; conditions: source organism: human gammaherpesvirus 4
HLA-B*83:01 = assay: as above; conditions: source organism: human gammaherpesvirus 4
HLA-A*30:01 = assay: IEDB peptide-MHC binding, purified MHC/competitive/radioactivity; filed as Kd, often an IC50 or EC50 that approximates it; ≥ and ≤ were set here for values at or beyond the usual limits of such assays; conditions: source organism: Vaccinia virus WR
HLA-A*32:01 = assay: as above; conditions: source organism: Vaccinia virus WR
HLA-B*08:01 [4] = assay: as above
HLA-B*15:01 [5] = assay: as above; conditions: source organism: Vaccinia virus WR
HLA-B*57:01 [6] = assay: IEDB peptide-MHC binding, purified MHC/direct/fluorescence; filed as Kd, often an IC50 or EC50 that approximates it; ≥ and ≤ were set here for values at or beyond the usual limits of such assays
HLA-B*58:01 = assay: as above
HLA-A*02:02 = assay: IEDB peptide-MHC binding, purified MHC/competitive/radioactivity; filed as Kd, often an IC50 or EC50 that approximates it; ≥ and ≤ were set here for values at or beyond the usual limits of such assays; conditions: source organism: Vaccinia virus WR
HLA-A*02:01 [7] = assay: IEDB peptide-MHC binding, purified MHC/competitive/fluorescence; filed as Kd, often an IC50 or EC50 that approximates it; ≥ and ≤ were set here for values at or beyond the usual limits of such assays; conditions: source organism: Staphylococcus aureus subsp. aureus N315
HLA-A*03:01 [8] = assay: as above; conditions: source organism: Staphylococcus aureus subsp. aureus N315
HLA-A*26:01 = assay: as above; conditions: source organism: Staphylococcus aureus subsp. aureus N315
HLA-B*15:01 [9] = assay: as above; conditions: source organism: Staphylococcus aureus subsp. aureus N315
HLA-B*18:01 [10] = assay: as above; conditions: source organism: Staphylococcus aureus subsp. aureus N315
HLA-B*27:03 = assay: as above; conditions: source organism: Staphylococcus aureus subsp. aureus N315
HLA-B*39:01 [11] = assay: as above; conditions: source organism: Staphylococcus aureus subsp. aureus N315
HLA-B*46:01 [12] = assay: as above; conditions: source organism: Staphylococcus aureus subsp. aureus N315
HLA-B*57:01 [13] = assay: as above; conditions: source organism: Staphylococcus aureus subsp. aureus N315
HLA-A*01:01 = assay: IEDB peptide-MHC binding, purified MHC/direct/fluorescence; filed as Kd, often an IC50 or EC50 that approximates it; ≥ and ≤ were set here for values at or beyond the usual limits of such assays
HLA-A*02:01 [14] = assay: as above; conditions: source organism: West Nile virus
HLA-A*03:01 [15] = assay: as above
HLA-A*11:01 = assay: as above
HLA-A*29:02 = assay: as above
HLA-A*31:01 = assay: as above
HLA-A*69:01 = assay: as above; conditions: source organism: West Nile virus
HLA-B*07:02 = assay: as above
HLA-B*08:01 [16] = assay: as above; conditions: source organism: West Nile virus
HLA-B*18:01 [17] = assay: as above; conditions: source organism: West Nile virus
HLA-B*27:05 = assay: as above; conditions: source organism: West Nile virus
HLA-B*40:01 = assay: as above; conditions: source organism: West Nile virus
HLA-B*46:01 [18] = assay: as above; conditions: source organism: West Nile virus
HLA-B*39:01 [19] = assay: as above; conditions: source organism: Mycobacterium tuberculosis
HLA-B*44:02 = assay: as above; conditions: source organism: Mycobacterium tuberculosis
[20] = source organism: Dengue virus 1 Nauru/West Pac/1974
[21] = source organism: Dengue virus 4 Philippines/H241/1956
[22] = source organism: Vaccinia virus WR
[23] = source organism: Camelpox virus M-96
[24] = source organism: West Nile virus
[25] = source organism: Dengue virus 3 China/80-2/1980
[26] = source organism: Mycobacterium tuberculosis
[27] = source organism: Dengue virus 4 Dominica/814669/1981
[28] = source organism: Dengue virus 1 Brazil/97-11/1997
[29] = source organism: Dengue virus 1 Singapore/S275/1990

Sequence: CMSNSRLSF
Kd (HLA-B*15:03): 1.03 nM

Sequence: AMLDVDLHPA
Kd (HLA-A*02:01 [1]; [20]): 5.66 nM
Kd (HLA-A*02:03; [20]): 2.03 nM
Kd (HLA-A*02:06; [20]): 7.08 nM
Kd (HLA-A*02:17; [20]): 1100 nM

Sequence: QQFYWPVMN
IC50 (HLA-A*02:01 [2]): 8000 nM
IC50 (HLA-B*15:01 [3]): 34000 nM

Sequence: FLDKGTYTL
Kd (HLA-C*05:01; source organism: human gammaherpesvirus 4): ≤ 1 nM
Kd (HLA-B*15:42): ≥ 5000 nM
Kd (HLA-B*45:06): ≥ 5000 nM
Kd (HLA-B*83:01): ≥ 5000 nM

Sequence: VLFVVTLIPL
Kd (HLA-A*02:01 [1]; [21]): 57 nM
Kd (HLA-A*02:17; [21]): 3110 nM

Sequence: SQIITLTAF
Kd (HLA-A*30:01): 16400 nM
Kd (HLA-A*32:01): 1200 nM
Kd (HLA-B*08:01 [4]; [22]): ≥ 40600 nM
Kd (HLA-B*15:01 [5]): 1.01 nM
Kd (HLA-B*15:03): 0.791 nM

Sequence: LAVLFINSI
Kd (HLA-B*15:03): 191 nM

Sequence: HLIMFEQYF
Kd (HLA-B*15:03): 45.5 nM

Sequence: LFLDIECHF
Kd (HLA-A*30:01): 19 nM
Kd (HLA-A*32:01): 3440 nM
Kd (HLA-B*08:01 [4]; [22]): 1120 nM
Kd (HLA-B*15:01 [5]): 547 nM
Kd (HLA-B*15:03): 47.3 nM

Sequence: KTINALVYF
Kd (HLA-B*57:01 [6]; [23]): 784 nM
Kd (HLA-B*58:01; [23]): 45.3 nM
Kd (HLA-A*30:01): 131 nM
Kd (HLA-A*32:01): 8.73 nM
Kd (HLA-B*08:01 [4]; [22]): 17100 nM
Kd (HLA-B*15:01 [5]): 0.366 nM
Kd (HLA-B*15:03): 22.7 nM

Sequence: FLGEDGCWYG
Kd (HLA-A*02:01 [1]; [21]): 52.4 nM
Kd (HLA-A*02:17; [21]): 1050 nM

Sequence: ALLGAMTAGI
Kd (HLA-A*02:01 [1]; [21]): 25.3 nM
Kd (HLA-A*02:03; [21]): 58.8 nM
Kd (HLA-A*02:17; [21]): 126 nM

Sequence: ILHSDYQLF
Kd (HLA-B*15:03): 2.43 nM

Sequence: ISASDMQKF
Kd (HLA-B*15:03): 812 nM

Sequence: CAVNTPVSM
Kd (HLA-A*02:02): 6270 nM
Kd (HLA-A*02:03; [22]): 15700 nM
Kd (HLA-A*02:06; [22]): 1520 nM
Kd (HLA-B*15:03): 43 nM

Sequence: VILNYIPVL
Kd (HLA-A*02:01 [7]): 0.6 nM
Kd (HLA-A*03:01 [8]): ≥ 20000 nM
Kd (HLA-A*26:01): ≥ 20000 nM
Kd (HLA-B*15:01 [9]): ≥ 20000 nM
Kd (HLA-B*18:01 [10]): ≥ 20000 nM
Kd (HLA-B*27:03): ≥ 20000 nM
Kd (HLA-B*39:01 [11]): ≥ 20000 nM
Kd (HLA-B*46:01 [12]): ≥ 20000 nM
Kd (HLA-B*57:01 [13]): ≥ 20000 nM

Sequence: LMTMNIVNF
Kd (HLA-A*32:01): 6530 nM
Kd (HLA-B*15:03): 16.5 nM

Sequence: LQKLAQHSI
Kd (HLA-B*15:03): 243 nM

Sequence: LVKTESWIL
Kd (HLA-A*01:01; [24]): ≥ 20000 nM
Kd (HLA-A*02:01 [14]): ≥ 20000 nM
Kd (HLA-A*03:01 [15]; [24]): ≥ 20000 nM
Kd (HLA-A*11:01; [24]): ≥ 20000 nM
Kd (HLA-A*29:02; [24]): ≥ 20000 nM
Kd (HLA-A*31:01; [24]): ≥ 20000 nM
Kd (HLA-A*69:01): ≥ 20000 nM
Kd (HLA-B*07:02; [24]): ≥ 20000 nM
Kd (HLA-B*08:01 [16]): 1890 nM
Kd (HLA-B*18:01 [17]): ≥ 20000 nM
Kd (HLA-B*27:05): ≥ 20000 nM
Kd (HLA-B*40:01): ≥ 20000 nM
Kd (HLA-B*46:01 [18]): ≥ 20000 nM
Kd (HLA-B*57:01 [6]; [24]): ≥ 20000 nM
Kd (HLA-B*58:01; [24]): ≥ 20000 nM

Sequence: CLMMMLPATL
Kd (HLA-A*02:03; [25]): 6.85 nM
Kd (HLA-A*02:17; [25]): 253 nM
Kd (HLA-B*08:01 [4]; [25]): 60.5 nM

Kd (HLA-A*11:01; source organism: Homo sapiens): ≥ 32600 nM
Kd (HLA-C*05:01; source organism: Mus musculus): ≥ 20000 nM
Sequence: TFDVAPSRL

Sequence: WQSVGHMMV
IC50 (HLA-A*02:01 [2]): 1540 nM
IC50 (HLA-B*15:01 [3]): 4760 nM

Sequence: SQAFNTPAL
Kd (HLA-A*01:01; [26]): ≥ 20000 nM
Kd (HLA-A*03:01 [15]; [26]): ≥ 20000 nM
Kd (HLA-A*29:02; [26]): ≥ 20000 nM
Kd (HLA-A*31:01; [26]): ≥ 20000 nM
Kd (HLA-B*07:02; [26]): ≥ 20000 nM
Kd (HLA-B*39:01 [19]): 30.8 nM
Kd (HLA-B*44:02): ≥ 20000 nM
Kd (HLA-B*57:01 [6]; [26]): ≥ 20000 nM
Kd (HLA-B*58:01; [26]): ≥ 20000 nM

Sequence: TLLCLIPTV
Kd (HLA-A*02:06; [27]): 3.44 nM
Kd (HLA-A*02:17; [27]): 151 nM

Sequence: ELMRRGDLPV
Kd (HLA-A*02:03; [28]): 139 nM
Kd (HLA-A*02:17; [21]): 19900 nM

Sequence: ILTILTIIGL
Kd (HLA-A*02:01 [1]; [21]): 18.5 nM
Kd (HLA-A*02:17; [21]): 456 nM

Sequence: GLAMGIMML
Kd (HLA-A*02:01 [1]; [20]): 77.6 nM
Kd (HLA-A*02:03; [28]): 0.67 nM
Kd (HLA-A*02:17; [20]): 15000 nM

Sequence: VLMLVAHYAI
Kd (HLA-A*02:01 [1]; [29]): 97.4 nM
Kd (HLA-A*02:17; [29]): 1830 nM
